Results taken from publication doi:10.1101/2021.08.21.457230.

Target: T1, human SLC44A1 (human), Q8WWI5
T1 chain: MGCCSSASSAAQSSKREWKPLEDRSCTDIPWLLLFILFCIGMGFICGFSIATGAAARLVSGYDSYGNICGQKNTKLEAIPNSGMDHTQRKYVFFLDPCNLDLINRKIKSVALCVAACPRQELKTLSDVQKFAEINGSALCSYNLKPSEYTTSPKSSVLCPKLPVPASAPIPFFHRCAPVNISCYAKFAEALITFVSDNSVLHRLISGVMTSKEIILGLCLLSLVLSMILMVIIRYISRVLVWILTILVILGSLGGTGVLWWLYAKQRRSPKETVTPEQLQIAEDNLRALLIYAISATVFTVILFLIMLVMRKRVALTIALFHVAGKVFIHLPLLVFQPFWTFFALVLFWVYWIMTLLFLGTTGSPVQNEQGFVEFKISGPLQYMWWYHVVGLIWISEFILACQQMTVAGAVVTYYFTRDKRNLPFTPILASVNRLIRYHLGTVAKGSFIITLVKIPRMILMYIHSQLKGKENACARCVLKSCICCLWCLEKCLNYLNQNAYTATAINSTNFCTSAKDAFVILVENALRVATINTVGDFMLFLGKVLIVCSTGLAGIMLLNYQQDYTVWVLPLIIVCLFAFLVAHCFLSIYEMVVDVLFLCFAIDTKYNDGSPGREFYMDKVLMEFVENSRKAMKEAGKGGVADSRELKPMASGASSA
Test: cryo-EM structure
Settings: remark: other sources report otherwise

B1: human SLC44A1, Q8WWI5 1-657 (natural protein)
chain: T1 chain
stoichiometry N: 2
